Data on 3 substances can be found in patent US20100040637A1.

The assay has as its target human prominin-1 (CD133) (human) (UniProt O43490). In words: cell-based or functional assay.
Chain of UniProt O43490 (O43490 20-865): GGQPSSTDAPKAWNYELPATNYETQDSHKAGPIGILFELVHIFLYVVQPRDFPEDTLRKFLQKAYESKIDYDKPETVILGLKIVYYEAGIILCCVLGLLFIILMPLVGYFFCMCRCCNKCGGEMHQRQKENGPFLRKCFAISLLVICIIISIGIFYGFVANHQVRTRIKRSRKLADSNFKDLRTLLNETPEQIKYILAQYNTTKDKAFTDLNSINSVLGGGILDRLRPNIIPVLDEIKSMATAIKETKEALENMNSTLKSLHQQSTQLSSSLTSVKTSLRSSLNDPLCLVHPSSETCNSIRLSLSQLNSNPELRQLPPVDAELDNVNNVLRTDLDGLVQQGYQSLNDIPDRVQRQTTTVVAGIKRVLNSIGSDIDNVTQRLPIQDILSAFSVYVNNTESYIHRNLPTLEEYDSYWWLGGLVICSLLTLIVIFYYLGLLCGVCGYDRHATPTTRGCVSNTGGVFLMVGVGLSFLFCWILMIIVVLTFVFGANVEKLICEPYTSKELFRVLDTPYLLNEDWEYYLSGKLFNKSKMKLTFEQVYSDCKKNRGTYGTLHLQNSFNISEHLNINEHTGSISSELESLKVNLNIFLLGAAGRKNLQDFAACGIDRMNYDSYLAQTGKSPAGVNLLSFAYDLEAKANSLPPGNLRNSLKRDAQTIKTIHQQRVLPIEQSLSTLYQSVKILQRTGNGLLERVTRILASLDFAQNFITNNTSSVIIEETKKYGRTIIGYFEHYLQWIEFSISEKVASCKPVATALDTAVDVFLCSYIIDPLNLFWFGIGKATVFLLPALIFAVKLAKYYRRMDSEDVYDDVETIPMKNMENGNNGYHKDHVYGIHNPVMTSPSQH

Regarding “AC133-mcMMAF (AC133 conjugated to maleimidocaproyl-MMAF) (antibody)”, the IC50, cytotoxicity (resazurin) on HEK293 cells stably expressing CD133 stood at 1 ng/mL; the IC50, cytotoxicity (rezasurin dye conversion) in Hep3B cells was found to be 6 nM; the IC50, growth inhibition (3H-thymidine) of Caco-2 cells worked out at 100 ng/mL.

As for “AC133-vcMMAE (AC133 conjugated to maleimidocaproyl-valine-citrulline-p-aminobenzoyl-MMAE) (antibody)”, the IC50, cytotoxicity (resazurin) on HEK293 cells stably expressing CD133 is 6 ng/mL and the IC50, growth inhibition (3H-thymidine) of Caco-2 cells is 1000 ng/mL.

Substance “AC133-vcMMAF (AC133 conjugated to maleimidocaproyl-valine-citrulline-p-aminobenzoyl-MMAF) (antibody)” registered an IC50, cytotoxicity (resazurin) on HEK293 cells stably expressing CD133 of 1 ng/mL; an IC50, cytotoxicity (rezasurin dye conversion) in Hep3B cells of 0.35 nM; an IC50, cytotoxicity assay in Caco-2 cells of 3 ng/mL; an IC50, growth inhibition (3H-thymidine) of Caco-2 cells below 1 ng/mL.
